Reference: patent US11981935B2, “7β-hydroxysteroid dehydrogenase mutants and process for the preparation of ursodeoxycholic acid” (PharmaZell GmbH, priority 2010, dated 2024)
Entries after “also recorded” stand apart in the source; their conditions may differ.

Tests used:
[1] = biological target: T1, Collinsella aerofaciens 7β-HSDH mutant G39A (parent SEQ ID NO:2) (Collinsella aerofaciens, UniProt A4ECA9, G39A); test: Kinetic measurements of 7β-HSDH variants (microtiter plate photometer, cell lysate); conditions: 100 μM NADPH, varied DHCA, Michaelis-Menten model with substrate inhibition
T1 sequence (A4ECA9 1-263 G39A): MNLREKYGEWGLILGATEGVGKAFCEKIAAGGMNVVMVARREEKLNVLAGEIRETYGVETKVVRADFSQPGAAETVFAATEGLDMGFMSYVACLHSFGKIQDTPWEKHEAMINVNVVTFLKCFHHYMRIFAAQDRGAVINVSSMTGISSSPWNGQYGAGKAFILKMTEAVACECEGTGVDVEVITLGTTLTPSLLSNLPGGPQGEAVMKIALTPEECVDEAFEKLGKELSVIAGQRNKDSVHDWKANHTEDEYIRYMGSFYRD
Protocol: (§7) For each of the mutants and for the wild-type enzyme, kinetic measurements were carried out in the microtiter plate photometer, recording the conversion rates of the enzymes both with constant substrate concentrations with variation of cofactor concentrations and vice versa. To determine the specific enzyme activity, the enzyme concentrations in the cell lysate were determined by densitometry.
(§8) In these measurement series, the reaction rate was determined by linear regression over the first 4 measurements (0 s-18 s).
(§9) The data obtained were evaluated with IGOR Pro. […] For this reason, the classical Michaelis-Menten model was used for evaluating the measurement series at constant substrate concentration and variation of cosubstrate concentration, and the Michaelis-Menten model with substrate inhibition was used for the measurement series with constant cosubstrate concentration and variation of substrate concentration.
(§10) vmax, Km and Ki were determined by nonlinear regression.
(§11) [formula] • v specific enzyme activity, U mg^−1=μmol min^−1 mg^−1 • vmax maximum specific enzyme activity, U mg^−1=μmol min^−1 mg^−1 • cS substrate or cofactor concentration, mol L^−1 • Km semisaturation concentration, mol L^−1 • Ki inhibition constant, mol L^−1

[2] = biological target: T2, Collinsella aerofaciens 7β-HSDH mutant G39S (parent SEQ ID NO:2) (Collinsella aerofaciens, UniProt A4ECA9, G39S); test: as above; conditions: 100 μM NADPH, varied DHCA, Michaelis-Menten model with substrate inhibition
T2 sequence (A4ECA9 1-263 G39S): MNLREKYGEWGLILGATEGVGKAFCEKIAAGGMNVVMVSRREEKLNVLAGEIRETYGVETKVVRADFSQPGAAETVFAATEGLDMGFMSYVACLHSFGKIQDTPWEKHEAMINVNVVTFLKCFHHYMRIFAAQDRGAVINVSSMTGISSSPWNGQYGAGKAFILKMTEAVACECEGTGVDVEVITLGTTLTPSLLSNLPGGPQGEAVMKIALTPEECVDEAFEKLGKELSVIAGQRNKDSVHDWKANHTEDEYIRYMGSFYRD
Protocol: as §7, §8, §9, §10, §11

[3] = biological target: 7β-HSDH from Collinsella aerofaciens DSM 3979 (Collinsella aerofaciens, UniProt A4ECA9); assay type: biochemical
[4] = biological target: T3, 7β-HSDH from Collinsella aerofaciens, wild type (WT), SEQ ID NO:2 (Collinsella aerofaciens, UniProt A4ECA9); test: Kinetic measurements of 7β-HSDH variants (microtiter plate photometer, cell lysate); conditions: 100 μM NADPH, varied DHCA, Michaelis-Menten model with substrate inhibition
T3 sequence (A4ECA9 1-263): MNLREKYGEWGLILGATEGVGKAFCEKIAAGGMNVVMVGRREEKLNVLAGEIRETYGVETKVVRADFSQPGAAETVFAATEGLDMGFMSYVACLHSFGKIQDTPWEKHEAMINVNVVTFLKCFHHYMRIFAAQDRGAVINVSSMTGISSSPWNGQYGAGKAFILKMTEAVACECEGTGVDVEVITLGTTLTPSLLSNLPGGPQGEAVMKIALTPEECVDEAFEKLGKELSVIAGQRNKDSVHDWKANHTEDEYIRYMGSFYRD

[5] = biological target: 7β-HSDH (Collinsella aerofaciens, UniProt A4ECA9); test: Photometric identification of 7β-HSDH activity (production example 1); assay type: biochemical, Collinsella aerofaciens ATCC 25986; conditions: 0.1 mM test substance, potassium phosphate buffer 50 mM pH 8, in the presence of NADP+ or NADPH
Protocol: For identification of 7β-HSDH activity, the activity was investigated by a photometric method. In a 1 ml cuvette, enzyme and 0.1 mM of test substance (UDCA) were mixed in potassium phosphate buffer (50 mM, pH8).

[6] = substrate: NC(=O)c1ccc[n+]([C@@H]2O[C@H](COP(=O)([O-])OP(=O)(O)OC[C@H]3O[C@@H](n4cnc5c(N)ncnc54)[C@H](OP(=O)(O)O)[C@@H]3O)[C@@H](O)[C@H]2O)c1; test: purified protein, by the assay type; conditions: other: pH 8, 25° C.
[7] = substrate: NC(=O)C1=CN([C@@H]2O[C@H](COP(=O)(O)OP(=O)(O)OC[C@H]3O[C@@H](n4cnc5c(N)ncnc54)[C@H](OP(=O)(O)O)[C@@H]3O)[C@@H](O)[C@H]2O)C=CC1; test: purified protein, by the assay type; conditions: other: pH 8, 25° C.
[8] = substrate: O=CO; test: Kinetic constants of FDH (characterization of the mutant D221G); assay type: biochemical, Mycobacterium vaccae N10; conditions: 37.0 °C
Excerpt: (§1) The following vector constructs were used • pET22b(+) 7β-HSDH: a pET22b(+) vector into which the 7β-HSDH from Collinsella aerofaciens ATCC 25986 had been cloned via the Nde I and Hind III cleavage sites in the usual way. • pET22b(+) 3α-HSDH: a pET22b(+) vector into which the 3α-HSDH from Comamonas testosteroni had been cloned via the Nde I and EcoR I cleavage sites in the usual way (Oppermann et al., J Biochem, 1996, 241(3): 744-749). • pET21a(+) FDH D221G (cf. FIG. 4a): a pET21a(+) vector into which the formate dehydrogenase from Mycobacterium vaccae N10 had been cloned via the Nde I and EcoR I cleavage sites. With site-directed mutagenesis, the aspartate residue (D) at position 221 (without taking into account methionine in position 1) or position 222 (counting from methionine in position 1; cf. SEQ ID NO: 15, 19, 35) of formate dehydrogenase was replaced with a glycine residue (cf. production example 4, below). Formate dehydrogenase carries, at position 1202 of the nucleotide sequence, a single base deletion, which leads to exchange of the last amino acid valine for an alanine. Simultaneously, this base deletion leads to switching-off of the stop codon and to activation of the His·Tag that was originally outside of the reading frame (cf. SEQ ID NO: 34 and 35). • pET21a(+) 7β-HSDH: a pET21a(+) vector, into which the 7β-HSDH from Collinsella aerofaciens ATCC 25986 had been cloned via the Nde I and Xho I cleavage sites in the usual way • pET21a(+) FDH D221G 7β-HSDH (cf. FIG. 4b) • pET21a(+) FDH 7β-HSDH(G39A) 3α-HSDH (cf. FIG. 8) • pCOLA(mod) 3α-HSDH (cf. FIG. 5) Microorganisms
(§2) The production of an FDH mutant, which can regenerate not only NADH, but also NADHP, will be explained in more detail with the mutant D221G.
(§3) This can lead to repulsion of the phosphate group in the NADP^+, which is also negatively charged. The aspartate is therefore replaced with the small uncharged amino acid residue glycine (G).
(§4) First an LB preculture was inoculated from frozen stored material or with a colony from an agar plate and the preculture was incubated overnight. Incubation was carried out at 37° C. and 250 rpm. The OD of the preculture was determined and the culture was inoculated to an OD of 0.1. On reaching an OD of 0.5-1 (after about 2.5 h), it was induced with IPTG (final concentration 1 mM). The cells were harvested three hours after induction.
(§5) The cells were disrupted mechanically with glass beads. For this, 0.5 mL of glass beads were added to 0.5 mL of cell sample in a 1.5-mL reaction vessel and the reaction vessel was shaken for 3 min at maximum frequency (30 s^−1) in a Retsch vibratory mill. After cell maceration, the glass beads were centrifuged off (2 min, 13000 rpm). Before and after maceration, the culture was put on ice, to minimize protein denaturation through heating of the sample in the vibratory mill. This maceration protocol is optimized for the use of samples frozen at −20° C.
(§6) Summary of kinetic constants of FDH at pH 6, 7 and 8.

[9] = substrate: NC(=O)c1ccc[n+]([C@@H]2O[C@H](COP(=O)([O-])OP(=O)(O)OC[C@H]3O[C@@H](n4cnc5c(N)ncnc54)[C@H](OP(=O)(O)O)[C@@H]3O)[C@@H](O)[C@H]2O)c1; test: as above; assay type: biochemical, Mycobacterium vaccae N10; conditions: 37.0 °C
Excerpt: as §1, §2, §3, §4, §5, §6

[10] = substrate: NC(=O)c1ccc[n+]([C@@H]2O[C@H](COP(=O)([O-])OP(=O)(O)OC[C@H]3O[C@@H](n4cnc5c(N)ncnc54)[C@H](O)[C@@H]3O)[C@@H](O)[C@H]2O)c1; test: as above; assay type: biochemical, Mycobacterium vaccae N10; conditions: 37.0 °C
Excerpt: as §1, §2, §3, §4, §5, §6

[11] = Kinetic constants of FDH (mutant D221G) at pH 6, 7 and 8; assay type: biochemical, Mycobacterium vaccae
[12] = other: pH 6, substrate sodium formate, pH 6.0
[13] = other: pH 7, substrate sodium formate, pH 7.0
[14] = other: pH 8, substrate sodium formate, pH 8.0

## C[C@H](CCC(=O)O)[C@H]1CC[C@H]2[C@@H]3C(=O)C[C@@H]4CC(=O)CC[C@]4(C)[C@H]3CC(=O)[C@]12C [DHCA, Dehydrocholic acid]
[1]; listed as DCS
  Vmax: 21.0 ± 1.1 U/mg
[1]; listed as dehydrocholic acid
  Vmax: 21.0±1.1 U/mg
[2]; listed as DCS
  Vmax: 20.7 ± 1.0 U/mg
[2]; listed as dehydrocholic acid
  Vmax: 20.1±1.0 U/mg
[3]
  Vmax: 28.33 U/mg protein
  kcat: 875.35 1 μmol/(μmol × min)
[4]
  Vmax: 14.6 ± 1.0 U/mg
[4]; listed as DCS
  Vmax: 14.6 ± 1.0 U/mg
[4]; listed as dehydrocholic acid
  Vmax: 14.6±1.0 U/mg
[5]
  activity of 7β-HSDH against the test substance: 119 U/ml

## C[C@H](CCC(=O)O)[C@H]1CC[C@H]2[C@@H]3C(=O)C[C@@H]4C[C@H](O)CC[C@]4(C)[C@H]3CC[C@]12C [7-Keto-LCA, 7-Keto-lithocholic acid]
[5]
  activity of 7β-HSDH against the test substance: 35 U/ml

## C[C@H](CCC(=O)O)[C@H]1CC[C@H]2[C@@H]3[C@@H](O)C[C@@H]4C[C@H](O)CC[C@]4(C)[C@H]3CC[C@]12C [UDCA, Ursodeoxycholic acid]
[3]
  Vmax: 38.17 U/mg protein
  kcat: 1179.39 1 μmol/(μmol × min)
[5]
  activity of 7β-HSDH against the test substance: 60 U/ml

## C[C@H](CCC(=O)O)[C@H]1CC[C@H]2[C@@H]3[C@H](O)C[C@@H]4C[C@H](O)CC[C@]4(C)[C@H]3C[C@H](O)[C@]12C [CA, Cholic acid]
[5]
  activity of 7β-HSDH against the test substance: no activity; also recorded: not detectable

B1: 7β-HSDH from Collinsella aerofaciens DSM 3979 (ATCC 25986), wild type, SEQ ID NO:2 (Collinsella aerofaciens ATCC 25986) (protein)
chain: MNLREKYGEWGLILGATEGVGKAFCEKIAAGGMNVVMVGRREEKLNVLAGEIRETYGVETKVVRADFSQPGAAETVFAATEGLDMGFMSYVACLHSFGKIQDTPWEKHEAMINVNVVTFLKCFHHYMRIFAAQDRGAVINVSSMTGISSSPWNGQYGAGKAFILKMTEAVACECEGTGVDVEVITLGTTLTPSLLSNLPGGPQGEAVMKIALTPEECVDEAFEKLGKELSVIAGQRNKDSVHDWKANHTEDEYIRYMGSFYRD
[6]
  Km: 5.32 µM
  Vmax: 30.6 µmol/min/mg
  kcat: 944.95 μmol/(μmol × min)
[7]
  Km: 4.50 µM
  Vmax: 33.4 µmol/min/mg
  kcat: 1033.44 μmol/(μmol × min)

B2: Mycobacterium vaccae formate dehydrogenase (FDH) mutant D221G (= D222G of SEQ ID NO:36; SEQ ID NO: 15, 19, 35) (Mycolicibacterium vaccae; D222G) (protein)
chain: MAKVLCVLYDDPVDGYPKTYARDDLPKIDHYPGGQILPTPKAIDFTPGQLLGSVSGELGLREYLESNGHTLVVTSDKDGPDSVFERELVDADVVISQPFWPAYLTPERIAKAKNLKLALTAGIGSDHVDLQSAIDRNVTVAEVTYCNSISVAEHVVMMILSLVRNYLPSHEWARKGGWNIADCVSHAYDLEAMHVGTVAAGRIGLAVLRRLAPFDVHLHYTGRHRLPESVEKELNLTWHATREDMYPVCDVVTLNCPLHPETEHMINDETLKLFKRGAYIVNTARGKLCDRDAVARALESGRLAGYAGDVWFPQPAPKDHPWRTMPYNGMTPHISGTTLTAQARYAAGTREILECFFEGRPIRDEYLIVQGGALAGTGAHSYSKGNATGGSEEAAKFKKAAENSSSVDKLAAALEHHHHHH
notes: single-base deletion at the 3' end gives C-terminal read-through His-tag (last Val to Ala)
[8]; other: pH 6, cofactor NAD^+, pH 6.0
  Km: 46860 µM
[8]; other: pH 7, cofactor NAD^+, pH 7.0
  Km: 45560 µM
[8]; other: pH 8, cofactor NAD^+, pH 8.0
  Km: 59260 µM
[9]; [12]
  Km: 300 µM
[9]; [13]
  Km: 510 µM
[9]; [14]
  Km: 1010 µM
[10]; [12]
  Km: 830 µM
[10]; [13]
  Km: 610 µM
[10]; [14]
  Km: 520 µM

B3: FDH: formate dehydrogenase from Mycobacterium vaccae N10, mutant D221G, utilizes both NAD+ and NADP+ (protein)
chain: MAKVLCVLYDDPVDGYPKTYARDDLPKIDHYPGGQILPTPKAIDFTPGQLLGSVSGELGLREYLESNGHTLVVTSDKDGPDSVFERELVDADVVISQPFWPAYLTPERIAKAKNLKLALTAGIGSDHVDLQSAIDRNVTVAEVTYCNSISVAEHVVMMILSLVRNYLPSHEWARKGGWNIADCVSHAYDLEAMHVGTVAAGRIGLAVLRRLAPFDVHLHYTGRHRLPESVEKELNLTWHATREDMYPVCDVVTLNCPLHPETEHMINDETLKLFKRGAYIVNTARGKLCDRDAVARALESGRLAGYAGDVWFPQPAPKDHPWRTMPYNGMTPHISGTTLTAQARYAAGTREILECFFEGRPIRDEYLIVQGGALAGTGAHSYSKGNATGGSEEAAKFKKAV
modifications: CDS (1)..(1203)
[11]; pH 6, NAD+
  Specific activity: 4.6 U × mg^−1
[11]; pH 6, NADP+
  Specific activity: 1 U × mg^−1
[11]; pH 7, NAD+
  Specific activity: 5.1 U × mg^−1
[11]; pH 7, NADP+
  Specific activity: 1.2 U × mg^−1
[11]; pH 8, NAD+
  Specific activity: 4.7 U × mg^−1
[11]; pH 8, NADP+
  Specific activity: 1 U × mg^−1
